Experimental data as given in article PMC8167871, “Three‐dimensional structures of avian beta‐microseminoproteins: insight from the chicken egg‐specific beta‐microseminoprotein 3 paralog” (FEBS Open Bio, 2021).

Molecular target: the molecule itself
Test: MALDI-TOF mass spectrometry; top-down analysis of purified MSMB3 without any reduction or alkylation

B1: chicken beta-microseminoprotein 3 (MSMB3), proteoform lacking the C-terminal glycine, MSMB3(-G) (natural protein, chicken (Gallus gallus))
chain: RCYFRTSSKYGCISNRNLYVFGAVWKTEDCYQCKCKMNAMVCCSLVSIPKNYDRVNCVGLFHKKSCSIRVVKKTDPDISCKVYNGV
modifications: five disulfide bridges (C2-C43, C12-C35, C30-C66, C33-C42, C57-C80); delta mass of -1 Da on two lysines, especially K63 (potential oxidation of the lysine residue)
notes: chicken (Gallus gallus) MSMB3, mature protein without its C-terminal G87 (major proteoform of the purified sample, residues 1-86); numbers count on: the mature protein; The dimer seen by mass spectrometry and the crystal structure are of MSMB3(-G); the NMR sample is called only MSMB3; also called Gga-MSMB3; Gga-MSMB3 without G
In the case of B1, the “stoichiometry N” value is reported as 2.
